The record followed here is patent US8357518B2, “Thermostable enzymes for the hydrolysis of mannan-containing polysaccharides” (The Board of Trustees of the University of Illinois, priority 2010, dated 2013).

Substrate in data set [1]: OC[C@H]1O[C@@H](O[C@H]2[C@H](O)[C@@H](O)[C@H](O[C@H]3[C@H](O)[C@@H](O)C(O)O[C@@H]3CO)O[C@@H]2CO)[C@H](O)[C@@H](O)[C@@H]1O
The data set can be described thus: purified protein, by the assay type. The settings on record: other: Man5B 3 nM, oligosaccharide 30 μM, citrate buffer 50 mM, pH 5.5, 5 min, triplicate.

Substrate in data set [2]: O=[N+]([O-])c1ccc(O[C@@H]2O[C@H](CO)[C@@H](O[C@@H]3O[C@H](CO)[C@@H](O)[C@H](O)[C@H]3O)[C@H](O)[C@H]2O)cc1
The data set can be described thus: Catalytic efficiency with pNP-linked sugars (Man5A-TM2). In kind it is biochemical, Caldanaerobius polysaccharolyticus. The settings on record: other: Man5A-TM2, pNP substrates, citrate buffer 50 mM, pH 5.5, 65° C., triplicate. The protocol:
(§1) The plasmid constructs were then introduced into E. coli BL-21 CodonPlus (DE3) RIL competent cells by heat shock, and grown overnight in lysogeny broth (LB) agar medium supplemented with ampicillin (100 μg/mL) and chloramphenicol (50 μg/mL) at 37° C. After 12 h, single colonies were selected and used to inoculate fresh LB (10 mL) supplemented with the antibiotics above at the same concentrations, followed by culturing with aeration for 8 h at 37° C. The pre-cultures were then inoculated into fresh LB (1 L) supplemented with ampicillin and chloramphenicol and the cultures were incubated at 37° C. with vigorous aeration (225 rpm/min). […] Aliquots of eluted fractions were analyzed by sodium dodecyl sulfate-polyacrylamide gel electrophoresis (SDS-PAGE) and protein bands were visualized by staining with Coomassie brilliant blue G-250. […] The UV absorbances of the protein solutions were recorded at 280 nm using a Nanoprop 1000 from Thermo Scientific (Waltham, Mass.) and the protein concentrations were calculated using the following extinction coefficients: Man5A-TM1, ε280 nm=189 mM^−1 cm^−1; Man5A-TM2, ε280 nm=113 mM^−1 cm^−1; Man5B, ε280 nm=103 mM^−1 cm^−1.
(§2) Hydrolysis of para-nitrophenyl (pNP) linked sugars. […] The extinction coefficient of pNP at pH 5.5 was determined as 1636 M^−1 cm^−1.

Substrate in data set [3]: O=[N+]([O-])c1ccc(O[C@@H]2O[C@H](CO)[C@@H](O)[C@H](O)[C@@H]2O)cc1
The data set is described as above. In kind it is biochemical, Caldanaerobius polysaccharolyticus. The settings on record: other: Man5A-TM2, pNP substrates, citrate buffer 50 mM, pH 5.5, 65° C., triplicate. As to the method:
as §1, §2

Substrate in data set [4]: O=[N+]([O-])c1ccc(O[C@@H]2O[C@H](CO)[C@@H](O)[C@H](O)[C@@H]2O)cc1
In words: Catalytic efficiency with pNP-linked sugars (Man5A-TM1). The format is biochemical, Caldanaerobius polysaccharolyticus. The settings on record: other: Man5A-TM1, pNP substrates, citrate buffer 50 mM, pH 5.5, 65° C., triplicate. The protocol:
as §1, §2

B1: Caldanaerobius polysaccharolyticus endo-β-mannanase Man5B, wild type, SEQ ID NO: 31 (Caldanaerobius polysaccharolyticus) (protein)
chain: MKKYGFNFQWMYVWEEGREPEPPDKKALDFLAETGFNFVRIPVDYRFWTRNFDYFNPDKKVFEYIDLYLRECSARNIHMCLNLHRAPGYCINRNDIERDNLWLDKRAQDGFVYQWELFAKRYKGVSSKFLSFDLVNEPPNIGQYGLTRENHASLIIRTVEAIRKIDPDREIVIDGLGGGNIAMPELAHLGVVHSGRGYQPMALTHYQASWWDGHKGLPEPYYPDLLWQGKVWNKDTLREYYKPWRDLQQKGVNVHIGEFGCFNKTSNDVAIRWFEDVLSLYKEFEWGYSLWNFKGPFGIVEHGRPGAKYEYYRGFKVDRELLDLLVENRV
Regarding B1, the catalytic efficiency (kcat/Km) in data set [1] was found to be 1000 ± 70 M⁻¹ s⁻¹.

B2: Caldanaerobius polysaccharolyticus endo-β-mannanase Man5A truncation mutant Man5A-TM2, SEQ ID NO: 29 (Caldanaerobius polysaccharolyticus) (protein)
chain: AGTSGDGRFHVVGNKIVDPDGKDFIIKGVNIQGYRSWEKRSVLQDVHLIADVWKFNTVRLNCFIGQNNWGEGTGANNDIDAIIKAFTAKKVVVEIDLHDTTGYPPLSNPPPAPGQPSLDQAIAWFKELAAKYKDNPYVWFNTMNEPGSSTAPLDPQWKVANEEIIKAIRSTGADNIIVVDGWSYANEGIEQNTPTVDEKRSAVLTYGQDLLNADSAKNTIFAFHNYNEGDIQKKVEDYIDRANAKGLYVFMEEYGKDYSDAAKEGVKSGLQAVMNKGAGRIYWNWDGYDLYDLTSGTGRGSGWEINKTDGSKPTNLSWVGDKIWDDNHGITPTFDDQNPKVDLALERLIANNNGFKAGDKVQFTTFLRNSGDLPIGKDSKVVVKFYVDGVQLGDPVEISGGIAVGQRIPVTSPELTVSKTDFTVKAVIDSSSTYADGAEDAVIENNWIEAAFNSTAPSSGYELVVTGIKITPDTVKEGDYVQAQVTVANQGPEATPVTNIIGWFYVNGYYYTLDDAAKSCAEQDNVTLKPGESITLSTKVKYRAAAPFNFSFVLENLYADDQNQSNNSITVNVPVK
B2: the kcat/Km result in data set [2] is reported as “(2.5 ± 0.3) × 10^−2 mM^−1 s^−1”; in data set [3], “(1.1 ± 0.2) × 10^−2 mM^−1 s^−1”.

B3: Caldanaerobius polysaccharolyticus endo-β-mannanase Man5A truncation mutant Man5A-TM1, SEQ ID NO: 28 (Caldanaerobius polysaccharolyticus) (protein)
chain: AGTSGDGRFHVVGNKIVDPDGKDFIIKGVNIQGYRSWEKRSVLQDVHLIADVWKFNTVRLNCFIGQNNWGEGTGANNDIDAIIKAFTAKKVVVEIDLHDTTGYPPLSNPPPAPGQPSLDQAIAWFKELAAKYKDNPYVWFNTMNEPGSSTAPLDPQWKVANEEIIKAIRSTGADNIIVVDGWSYANEGIEQNTPTVDEKRSAVLTYGQDLLNADSAKNTIFAFHNYNEGDIQKKVEDYIDRANAKGLYVFMEEYGKDYSDAAKEGVKSGLQAVMNKGAGRIYWNWDGYDLYDLTSGTGRGSGWEINKTDGSKPTNLSWVGDKIWDDNHGITPTFDDQNPKVDLALERLIANNNGFKAGDKVQFTTFLRNSGDLPIGKDSKVVVKFYVDGVQLGDPVEISGGIAVGQRIPVTSPELTVSKTDFTVKAVIDSSSTYADGAEDAVIENNWIEAAFNSTAPSSGYELVVTGIKITPDTVKEGDYVQAQVTVANQGPEATPVTNIIGWFYVNGYYYTLDDAAKSCAEQDNVTLKPGESITLSTKVKYRAAAPFNFSFVLENLYADDQNQSNNSITVNVPVKMGEGGVNMVSNPGFEDGLDSWQDWQQDMSAVPEAAHNGALGLKIGGGKAAGGGQDIPLKPNTTYILGAWAKFDSKPAGTFDVVVQYHLKDANNTYVQHILNFNETDWTYKQLLFTTPDVFGSTPQLALWKGDTSKANLYVDDVYLVEVSNLIVNGTAENGMDGWPDWGYPVSAVPEAAYGGTKGFKLSGGKQAGMGQKVALKPNTTYILGAWGKFTAKPGTYCDVIVQYHLKDANNTYVQNILRFTETDWTYKQVVFTTPDAFGSDPEFVLWKDDASNADFYADNITLVEV
Consider B3, for which the kcat/Km result in data set [4] is reported as “(1.4 ± 0.3) × 10^−2 mM^−1 s^−1”.
